Reference: IntAct's records for PubMed 20571511

B1: Proliferating cell nuclear antigen (Saccharomyces cerevisiae), P15873 (parent)
chain: MLEAKFEEASLFKRIIDGFKDCVQLVNFQCKEDGIIAQAVDDSRVLLVSLEIGVEAFQEYRCDHPVTLGMDLTSLSKILRCGNNTDTLTLIADNTPDSIILLFEDTKKDRIAEYSLKLMDIDADFLKIEELQYDSTLSLPSSEFSKIVRDLSQLSDSINIMITKETIKFVADGDIGSGSVIIKPFVDMEHPETSIKLEMDQPVDLTFGAKYLLDIIKGSSLSDRVGIRLSSEAPALFQFDLKSGFLQFFLAPKFNDEE
partner: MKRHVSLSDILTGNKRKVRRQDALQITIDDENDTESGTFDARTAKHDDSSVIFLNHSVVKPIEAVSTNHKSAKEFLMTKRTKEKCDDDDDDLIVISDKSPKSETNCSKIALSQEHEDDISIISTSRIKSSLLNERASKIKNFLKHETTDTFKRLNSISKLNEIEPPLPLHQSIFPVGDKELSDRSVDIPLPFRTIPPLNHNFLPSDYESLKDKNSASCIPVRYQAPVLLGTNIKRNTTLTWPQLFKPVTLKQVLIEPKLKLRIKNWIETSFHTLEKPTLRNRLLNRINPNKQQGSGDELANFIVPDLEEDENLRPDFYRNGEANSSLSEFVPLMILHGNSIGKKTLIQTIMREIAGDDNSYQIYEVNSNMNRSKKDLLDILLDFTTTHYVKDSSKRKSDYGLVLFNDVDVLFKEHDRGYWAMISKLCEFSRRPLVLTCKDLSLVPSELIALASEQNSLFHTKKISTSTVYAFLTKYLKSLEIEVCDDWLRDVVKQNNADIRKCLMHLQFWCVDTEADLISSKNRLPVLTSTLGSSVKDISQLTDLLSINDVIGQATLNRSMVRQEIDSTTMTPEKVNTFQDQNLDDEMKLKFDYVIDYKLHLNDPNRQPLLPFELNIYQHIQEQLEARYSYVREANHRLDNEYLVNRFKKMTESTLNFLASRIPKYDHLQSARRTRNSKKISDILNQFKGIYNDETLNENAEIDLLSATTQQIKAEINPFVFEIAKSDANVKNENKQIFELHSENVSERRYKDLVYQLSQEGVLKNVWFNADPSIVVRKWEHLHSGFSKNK
B2: Telomere length regulation protein ELG1 (Saccharomyces cerevisiae), Q12050 (parent)
chain: B1 partner

Variants of: B1
Conditions: with elg1_yeast ELG1, Q12050
MLEAKFEEASLFKRIIDGFKDCVQLVNFQCKEDGIIAQAVDDSRVLLVSLEIGVEAFQEYRCDHPVTLGMDLTSLSKILRCGNNTDTLTLIADNTPDSIILLFEDTKKDRIAEYSLKLMDIDADFLKIEELQYDSTLSLPSSEFSKIVRDLSQLSDSINIMITRETIKFVADGDIGSGSVIIKPFVDMEHPETSIKLEMDQPVDLTFGAKYLLDIIKGSSLSDRVGIRLSSEAPALFQFDLKSGFLQFFLAPKFNDEE [K164R] was tested, and the “effect of a mutation on the interaction” value was “decreasing interaction”.

Variants of: B2
Conditions: with pcna_yeast POL30, P15873
I122A was tested, and the “effect of a mutation on the interaction” value was “disrupting interaction”.
For I121A, the “effect of a mutation on the interaction” value was “disrupting interaction”.
I28A was tested, and the “effect of a mutation on the interaction” value was “disrupting interaction”.
In the case of I93K, the “effect of a mutation on the interaction” value is reported as “disrupting interaction”.

Variants of: B2
Conditions: with smt3_yeast SMT3, Q12306
Sequence of smt3_yeast SMT3, Q12306 (Q12306 whole entry): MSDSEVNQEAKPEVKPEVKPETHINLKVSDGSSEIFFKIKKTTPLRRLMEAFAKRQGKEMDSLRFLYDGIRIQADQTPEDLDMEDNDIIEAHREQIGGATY
In the case of I122A, the “effect of a mutation on the interaction” value is reported as “decreasing interaction”.
In the case of I121A, the “effect of a mutation on the interaction” value is reported as “decreasing interaction”.
In the case of I28A, the “effect of a mutation on the interaction” value is reported as “decreasing interaction”.
For I93K, the “effect of a mutation on the interaction” value was “decreasing interaction”.

Variants of: B2
Conditions: with smt3_yeast SMT3, Q12306
Remark: another data set of the same source
In the case of I122A, the “effect of a mutation on the interaction” value is reported as “disrupting interaction”.
With I121A the “effect of a mutation on the interaction” value was “disrupting interaction”.
I28A was tested, and the “effect of a mutation on the interaction” value was “disrupting interaction”.
With I93K the “effect of a mutation on the interaction” value was “disrupting interaction”.

Variants of: B2
Conditions: with pcna_yeast POL30, P15873
Remark: another data set of the same source
With V58A the “effect of a mutation on the interaction” value was “decreasing interaction”.
S57A was tested, and the “effect of a mutation on the interaction” value was “decreasing interaction”.

Variants of: B2
Conditions: with pcna_yeast POL30, P15873
Remark: another data set of the same source
In the case of V59A, the “effect of a mutation on the interaction” value is reported as “decreasing interaction”.
